Patent US20210054067A1 (ALETHIA BIOTHERAPEUTICS, published 2021)

B1: humanized 3A4 antibody Lh1Hh1 (antibody, human IgG1, kappa, V domains shown)
VH: QVQLVQSGAEVKKPGASVKVSCKASGYTFTDDYMSWVRQAPGQGLEWMGDINPYNGDTNYNQKFKGRVTITADTSTSTAYMELSSLRSEDTAVYYCARDPGAMDYWGQGTLVTVSS
VL: DIVMTQTPLSLPVTPGEPASISCRSSQSLLHSNGNTYLEWYLQKPGQSPQLLIYTVSNRFSGVPDRFSGSGSGTDFTLKISRVEAEDVGVYYCFQGSHVPLTFGQGTKLEIKR
notes: 100% humanized frameworks; human IgG1 kappa; also called H1L1
B2: 3D3 anti-KAAG1 antibody (chimeric 3D3) (antibody, V domains shown)
VH: EVQLQQSVAELVRPGASVTLSCKASGYIFTDYEIHWVKQTPVHGLEWIGVIDPETGNTAFNQKFKGKATLTADISSSTAYMELSSLTSEDSAVYYCMGYSDYWGQGTTLTVSS
VL: DIVMTQSPSSLAVSIGQKVTMNCKSSQSLLNSNFQKNFLAWYQQKPGQSPKLLIYFASTRESSIPDRFIGSGSGTDFTLTISSVQAEDLADYFCQQHYSTPLTFGAGTKLELK
B3: 3G10 anti-KAAG1 antibody (antibody, V domains shown)
VH: EIQLQQSGPELVKPGASVKISCKASGYTFTDNYMNWVKQSHGKSLEWIGDINPYYGTTTYNQKFKGKATLTVDKSSRTAYMELRGLTSEDSAVYYCARDDWFDYWGQGTLVTVSA
VL: DVLMTQTPRSLSVSLGDQASISCRSSQSLLHSNGNTYLEWYLQKPGQPPKVLIYKVSNRFSGVPDRFSGSGSGTDFTLKISGVEAEDLGVYYCFQGSHVPLTFGAGTKLELK
B4: humanized 3A4 antibody Lh1Hh2 (antibody, human IgG1, kappa, V domains shown)
VH: QIQLVQSGAEVKKPGASVKVSCKASGYTFTDDYMSWVRQAPGQGLEWMGDINPYNGDTNYNQKFKGRVTITADKSTSTAYMELSSLRSEDTAVYYCARDPGAMDYWGQGTLVTVSS
VL: DIVMTQTPLSLPVTPGEPASISCRSSQSLLHSNGNTYLEWYLQKPGQSPQLLIYTVSNRFSGVPDRFSGSGSGTDFTLKISRVEAEDVGVYYCFQGSHVPLTFGQGTKLEIKR
notes: human IgG1 kappa
B5: humanized 3A4 antibody Lh1Hh3 (antibody, human IgG1, kappa, V domains shown)
VH: QIQLVQSGAEVKKPGASVKVSCKASGYTFTDDYMSWVRQAPGQGLEWIGDINPYNGDTNYNQKFKGRATLTVDKSTSTAYMELSSLRSEDTAVYYCARDPGAMDYWGQGTLVTVSS
VL: DIVMTQTPLSLPVTPGEPASISCRSSQSLLHSNGNTYLEWYLQKPGQSPQLLIYTVSNRFSGVPDRFSGSGSGTDFTLKISRVEAEDVGVYYCFQGSHVPLTFGQGTKLEIKR
notes: human IgG1 kappa
B6: humanized 3A4 antibody Lh1Hh4 (antibody, human IgG1, kappa, V domains shown)
VH: QIQLVQSGAEVKKPGASVKVSCKASGYTFTDDYMSWVKQAPGQGLEWIGDINPYNGDTNYNQKFKGKATLTVDKSTSTAYMELSSLRSEDTAVYYCARDPGAMDYWGQGTLVTVSS
VL: DIVMTQTPLSLPVTPGEPASISCRSSQSLLHSNGNTYLEWYLQKPGQSPQLLIYTVSNRFSGVPDRFSGSGSGTDFTLKISRVEAEDVGVYYCFQGSHVPLTFGQGTKLEIKR
notes: human IgG1 kappa
B7: humanized 3A4 antibody Lh2Hh1 (antibody, human IgG1, kappa, V domains shown)
VH: QVQLVQSGAEVKKPGASVKVSCKASGYTFTDDYMSWVRQAPGQGLEWMGDINPYNGDTNYNQKFKGRVTITADTSTSTAYMELSSLRSEDTAVYYCARDPGAMDYWGQGTLVTVSS
VL: DVVMTQTPLSLPVTPGEPASISCRSSQSLLHSNGNTYLEWYLQKPGQSPKLLIYTVSNRFSGVPDRFSGSGSGTDFTLKISRVEAEDVGVYYCFQGSHVPLTFGQGTKLEIKR
notes: human IgG1 kappa
B8: humanized 3A4 antibody Lh2Hh2 (antibody, human IgG1, kappa, V domains shown)
VH: QIQLVQSGAEVKKPGASVKVSCKASGYTFTDDYMSWVRQAPGQGLEWMGDINPYNGDTNYNQKFKGRVTITADKSTSTAYMELSSLRSEDTAVYYCARDPGAMDYWGQGTLVTVSS
VL: DVVMTQTPLSLPVTPGEPASISCRSSQSLLHSNGNTYLEWYLQKPGQSPKLLIYTVSNRFSGVPDRFSGSGSGTDFTLKISRVEAEDVGVYYCFQGSHVPLTFGQGTKLEIKR
notes: human IgG1 kappa
B9: humanized 3A4 antibody Lh2Hh3 (antibody, human IgG1, kappa, V domains shown)
VH: QIQLVQSGAEVKKPGASVKVSCKASGYTFTDDYMSWVRQAPGQGLEWIGDINPYNGDTNYNQKFKGRATLTVDKSTSTAYMELSSLRSEDTAVYYCARDPGAMDYWGQGTLVTVSS
VL: DVVMTQTPLSLPVTPGEPASISCRSSQSLLHSNGNTYLEWYLQKPGQSPKLLIYTVSNRFSGVPDRFSGSGSGTDFTLKISRVEAEDVGVYYCFQGSHVPLTFGQGTKLEIKR
notes: human IgG1 kappa
B10: humanized 3A4 antibody Lh2Hh4 (antibody, human IgG1, kappa, V domains shown)
VH: QIQLVQSGAEVKKPGASVKVSCKASGYTFTDDYMSWVKQAPGQGLEWIGDINPYNGDTNYNQKFKGKATLTVDKSTSTAYMELSSLRSEDTAVYYCARDPGAMDYWGQGTLVTVSS
VL: DVVMTQTPLSLPVTPGEPASISCRSSQSLLHSNGNTYLEWYLQKPGQSPKLLIYTVSNRFSGVPDRFSGSGSGTDFTLKISRVEAEDVGVYYCFQGSHVPLTFGQGTKLEIKR
notes: human IgG1 kappa; 10 mouse framework residues retained; also called H4L2

What follows are binders tested against T1, recombinant human KAAG1 (purified protein) (human, UniProt Q9UBP8 1-84, limits assumed) (assay: SPR (ProteOn XPR36)).
T1 construct: also called gel filtration purified KAAG1
T1 sequence: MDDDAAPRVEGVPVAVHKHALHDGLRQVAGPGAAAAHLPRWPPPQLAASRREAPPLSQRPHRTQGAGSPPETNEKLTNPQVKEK
Procedure: Remaining active groups were quenched by a 300 s injection of 1M ethanolamine at 30 μL/min in the analyte direction, and this also ensures mock-activated interspots are created for blank referencing. The screening of the 3A4 variants for binding to KAAG1 occurred in two steps: an indirect capture of 3A4 variants from cell supernatant onto the anti-human IgG Fc fragment specific surface in the ligand direction (vertical) followed by a KAAG1 injection in the analyte direction. Firstly, one buffer injection for 30 s at 100 uL/min in the ligand direction was used to stabilize the baseline. […] Four to five 3A4 variants along with wild-type 3A4 were simultaneously injected in individual ligand channels for 240 s at flow 25 μL/min. […] The first ligand channel was left empty to use as a blank control if required. […]
Sensorgrams were aligned and double-referenced using the buffer blank injection and interspots, and the resulting sensorgrams were analyzed using ProteOn Manager software v3.0. The kinetic and affinity values were determined by fitting the referenced sensorgrams to the 1:1 Langmuir binding model using local Rₘₐₓ, and affinity constants (KD M) were derived from the resulting rate constants (kd s⁻¹/kₐ M⁻¹s⁻¹).
For B1, the “fold difference in binding affinity against the best variant H4L2” value was 4 fold.

What follows are binders tested against T1, recombinant human KAAG1 (purified …) (assay: surface plasmon resonance (told in the summary)).
In the case of B2, the Kd is reported as > 200 nM and the “fold lower affinity than 3A4” value is reported as 20 fold.
B3 was tested, and the Kd was > 200 nM and the “fold lower affinity than 3A4” value was 20 fold.

Each binder was assayed against T1, recombinant human KAAG1 (purified …) (assay: SPR as above; KD relative to LcHc).
Procedure: Immediately after the activation, a 13 μg/mL solution of anti-human IgG Fc fragment specific in 10 mM NaOAc pH 4.5 was injected in the analyte direction at a flow rate of 25 μL/min until approximately 8000 resonance units (RUs) were immobilized. Remaining active groups were quenched by a 300 s injection of 1M ethanolamine at 30 μL/min in the analyte direction, and this also ensures mock-activated interspots are created for blank referencing. The screening of the 3A4 variants for binding to KAAG1 occurred in two steps: an indirect capture of 3A4 variants from cell supernatant onto the anti-human IgG Fc fragment specific surface in the ligand direction (vertical) followed by a KAAG1 injection in the analyte direction. Firstly, one buffer injection for 30 s at 100 uL/min in the ligand direction was used to stabilize the baseline. […] Four to five 3A4 variants along with wild-type 3A4 were simultaneously injected in individual ligand channels for 240 s at flow 25 μL/min. […] The first ligand channel was left empty to use as a blank control if required. This 3A4 capture step was immediately followed by two buffer injections in the analyte direction to stabilize the baseline, and then the gel filtration purified KAAG1 was injected. For a typical screen, five KAAG1 concentrations (8, 2.66, 0.89, 0.29, and 0.098 nM) and buffer control were simultaneously injected in individual analyte channels at 50 μL/min for 120 s with a 600 s dissociation phase, resulting in a set of binding sensorgrams with a buffer reference for each of the captured 3A4 variants. The anti-human IgG Fc fragment specific—3A4 complexes were regenerated by a 18 s pulse of 0.85% phosphoric acid for 18 s at 100 μL/min to prepare the anti-human IgG Fc fragment specific surface for the next injection cycle.
Sensorgrams were aligned and double-referenced using the buffer blank injection and interspots, and the resulting sensorgrams were analyzed using ProteOn Manager software v3.0.
Work on B4 yielded a Fold diff. of 13.2 fold.
Binder B1 has a Fold diff. of 29.6 fold.
Binder B5 has a Fold diff. of 9.3 fold.
With B6 the Fold diff. was 9.3 fold.
For B7, the Fold diff. was 21.3 fold.
B8 gave a Fold diff. of 15.3 fold.
B9 gave a Fold diff. of 14.3 fold.
Binder B10 has a Fold diff. of 6.4 fold.
